Data reported in the supplement of paper PMC5998384.

Assays:
[1] = system: HeLa Kyoto; assay: solubility in G1/S (NP-40 vs SDS abundance) (log2 ratio); higher = more soluble; conditions: cell cycle stage: G1/S
[2] = system: HeLa Kyoto; assay: solubility change mitosis vs G1/S (difference of NP-40 vs SDS log2 ratios) (log2 ratio difference); higher = more soluble in mitosis
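Throughout, for solubility change mitosis vs G1/S (difference of NP-40 vs SDS log2 ratios): synchronized HeLa Kyoto cells (double thymidine block for G1/S, nocodazole release for mitosis), protein amounts in NP-40 versus SDS lysates quantified by mass spectrometry, three biological replicates.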
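Throughout, for solubility in G1/S (NP-40 vs SDS abundance): HeLa Kyoto cells arrested at G1/S by double thymidine block, proteins quantified by TMT10plex mass spectrometry in mild NP-40 versus SDS extracts, three biological replicates.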

| Sequence | solubility in G1/S (log2) [1] | solubility change mitosis (log2) [2] |
| --- | --- | --- |
| MEKYHVLEMIGEGSFGRVYKGRRKYSAQVVALKFIPKLGRSEKELRNLQREIEIMRGLRHPNIVHMLDSFETDKEVVVVTDYAEGELFQILEDDGKLPEDQVQAIAAQLVSALYYLHSHRILHRDMKPQNILLAKGGGIKLCDFGFARAMSTNTMVLTSIKGTPLYMSPELVEERPYDHTADLWSVGCILYELAVGTPPFYATSIFQLVSLILKDPVRWPSTISPCFKNFLQGLLTKDPRQRLSWPDLLYHPFIAGHVTIITEPAGPDLGTPFTSRLPPELQVLKDEQAHRLAPKGNQSRILTQAYKRMAEEAMQKKHQNTGPALEQEDKTSKVAPGTAPLPRLGATPQESSLLAGILASELKSSWAKSGTGEVPSAPRENRTTPDCERAFPEERPEVLGQRSTDVVDLENEEPDSDNEWQHLLETTEPVPIQLKAPLTLLCNPDFCQRIQSQLHEAGGQILKGILEGASHILPAFRVLSSLLSSCSDSVALYSFCREAGLPGLLLSLLRHSQESNSLQQQSWYGTFLQDLMAVIQAYFACTFNLERSQTSDSLQVFQEAANLFLDLLGKLLAQPDDSEQTLRRDSLMCFTVLCEAMDGNSRAISKAFYSSLLTTQQVVLDGLLHGLTVPQLPVHTPQGAPQVSQPLREQSEDIPGAISSALAAICTAPVGLPDCWDAKEQVCWHLANQLTEDSSQLRPSLISGLQHPILCLHLLKVLYSCCLVSEGLCRLLGQEPLALESLFMLIQGKVKVVDWEESTEVTLYFLSLLVFRLQNLPCGMEKLGSDVATLFTHSHVVSLVSAAACLLGQLGQQGVTFDLQPMEWMAAATHALSAPAEVRLTPPGSCGFYDGLLILLLQLLTEQGKASLIRDMSSSEMWTVLWHRFSMVLRLPEEASAQEGELSLSSPPSPEPDWTLISPQGMAALLSLAMATFTQEPQLCLSCLSQHGSILMSILKHLLCPSFLNQLRQAPHGSEFLPVVVLSVCQLLCFPFALDMDADLLIGVLADLRDSEVAAHLLQVCCYHLPLMQVELPISLLTRLALMDPTSLNQFVNTVSASPRTIVSFLSVALLSDQPLLTSDLLSLLAHTARVLSPSHLSFIQELLAGSDESYRPLRSLLGHPENSVRAHTYRLLGHLLQHSMALRGALQSQSGLLSLLLLGLGDKDPVVRCSASFAVGNAAYQAGPLGPALAAAVPSMTQLLGDPQAGIRRNVASALGNLGPEGLGEELLQCEVPQRLLEMACGDPQPNVKEAALIALRSLQQEPGIHQVLVSLGASEKLSLLSLGNQSLPHSSPRPASAKHCRKLIHLLRPAHSM [STK36] | -0.178 | 0.092 |
| MEKYVRLQKIGEGSFGKAILVKSTEDGRQYVIKEINISRMSSKEREESRREVAVLANMKHPNIVQYRESFEENGSLYIVMDYCEGGDLFKRINAQKGVLFQEDQILDWFVQICLALKHVHDRKILHRDIKSQNIFLTKDGTVQLGDFGIARVLNSTVELARTCIGTPYYLSPEICENKPYNNKSDIWALGCVLYELCTLKHAFEAGSMKNLVLKIISGSFPPVSLHYSYDLRSLVSQLFKRNPRDRPSVNSILEKGFIAKRIEKFLSPQLIAEEFCLKTFSKFGSQPIPAKRPASGQNSISVMPAQKITKPAAKYGIPLAYKKYGDKKLHEKKPLQKHKQAHQTPEKRVNTGEERRKISEEAARKRRLEFIEKEKKQKDQIISLMKAEQMKRQEKERLERINRAREQGWRNVLSAGGSGEVKAPFLGSGGTIAPSSFSSRGQYEHYHAIFDQMQQQRAEDNEAKWKREIYGRGLPERGILPGVRPGFPYGAAGHHHFPDADDIRKTLKRLKAVSKQANANRQKGQLAVERAKQVEEFLQRKREAMQNKARAEGHMVYLARLRQIRLQNFNERQQIKAKLRGEKKEANHSEGQEGSEEADMRRKKIESLKAHANARAAVLKEQLERKRKEAYEREKKVWEEHLVAKGVKSSDVSPPLGQHETGGSPSKQQMRSVISVTSALKEVGVDSSLTDTRETSEEMQKTNNAISSKREILRRLNENLKAQEDEKGKQNLSDTFEINVHEDAKEHEKEKSVSSDRKKWEAGGQLVIPLDELTLDTSFSTTERHTVGEVIKLGPNGSPRRAWGKSPTDSVLKILGEAELQLQTELLENTTIRSEISPEGEKYKPLITGEKKVQCISHEINPSAIVDSPVETKSPEFSEASPQMSLKLEGNLEEPDDLETEILQEPSGTNKDESLPCTITDVWISEEKETKETQSADRITIQENEVSEDGVSSTVDQLSDIHIEPGTNDSQHSKCDVDKSVQPEPFFHKVVHSEHLNLVPQVQSVQCSPEESFAFRSHSHLPPKNKNKNSLLIGLSTGLFDANNPKMLRTCSLPDLSKLFRTLMDVPTVGDVRQDNLEIDEIEDENIKEGPSDSEDIVFEETDTDLQELQASMEQLLREQPGEEYSEEEESVLKNSDVEPTANGTDVADEDDNPSSESALNEEWHSDNSDGEIASECECDSVFNHLEELRLHLEQEMGFEKFFEVYEKIKAIHEDEDENIEICSKIVQNILGNEHQHLYAKILHLVMADGAYQEDNDE [NEK1] | -0.156 | -0.0529 |
| MELAQEARELGCWAVEEMGVPVAARAPESTLRRLCLGQGADIWAYILQHVHSQRTVKKIRGNLLWYGHQDSPQVRRKLELEAAVTRLRAEIQELDQSLELMERDTEAQDTAMEQARQHTQDTQRRALLLRAQAGAMRRQQHTLRDPMQRLQNQLRRLQDMERKAKVDVTFGSLTSAALGLEPVVLRDVRTACTLRAQFLQNLLLPQAKRGSLPTPHDDHFGTSYQQWLSSVETLLTNHPPGHVLAALEHLAAEREAEIRSLCSGDGLGDTEISRPQAPDQSDSSQTLPSMVHLIQEGWRTVGVLVSQRSTLLKERQVLTQRLQGLVEEVERRVLGSSERQVLILGLRRCCLWTELKALHDQSQELQDAAGHRQLLLRELQAKQQRILHWRQLVEETQEQVRLLIKGNSASKTRLCRSPGEVLALVQRKVVPTFEAVAPQSRELLRCLEEEVRHLPHILLGTLLRHRPGELKPLPTVLPSIHQLHPASPRGSSFIALSHKLGLPPGKASELLLPAAASLRQDLLLLQDQRSLWCWDLLHMKTSLPPGLPTQELLQIQASQEKQQKENLGQALKRLEKLLKQALERIPELQGIVGDWWEQPGQAALSEELCQGLSLPQWRLRWVQAQGALQKLCS [HAUS5] | 0.307 | -0.0591 |
| MELENIVANTVLLKAREGGGGNRKGKSKKWRQMLQFPHISQCEELRLSLERDYHSLCERQPIGRLLFREFCATRPELSRCVAFLDGVAEYEVTPDDKRKACGRQLTQNFLSHTGPDLIPEVPRQLVTNCTQRLEQGPCKDLFQELTRLTHEYLSVAPFADYLDSIYFNRFLQWKWLERQPVTKNTFRQYRVLGKGGFGEVCACQVRATGKMYACKKLEKKRIKKRKGEAMALNEKQILEKVNSRFVVSLAYAYETKDALCLVLTLMNGGDLKFHIYHMGQAGFPEARAVFYAAEICCGLEDLHRERIVYRDLKPENILLDDHGHIRISDLGLAVHVPEGQTIKGRVGTVGYMAPEVVKNERYTFSPDWWALGCLLYEMIAGQSPFQQRKKKIKREEVERLVKEVPEEYSERFSPQARSLCSQLLCKDPAERLGCRGGSAREVKEHPLFKKLNFKRLGAGMLEPPFKPDPQAIYCKDVLDIEQFSTVKGVELEPTDQDFYQKFATGSVPIPWQNEMVETECFQELNVFGLDGSVPPDLDWKGQPPAPPKKGLLQRLFSRQDCCGNCSDSEEELPTRL [GRK6] | -0.123 | -0.198 |
| MELPAVGEHVFAVESIEKKRIRKGRVEYLVKWRGWSPKYNTWEPEENILDPRLLIAFQNRERQEQLMGYRKRGPKPKPLVVQVPTFARRSNVLTGLQDSSTDNRAKLDLGAQGKGQGHQYELNSKKHHQYQPHSKERAGKPPPPGKSGKYYYQLNSKKHHPYQPDPKMYDLQYQGGHKEAPSPTCPDLGAKSHPPDKWAQGAGAKGYLGAVKPLAGAAGAPGKGSEKGPPNGMMPAPKEAVTGNGIGGKMKIVKNKNKNGRIVIVMSKYMENGMQAVKIKSGEVAEGEARSPSHKKRAADERHPPADRTFKKAAGAEEKKVEAPPKRREEEVSGVSDPQPQDAGSRKLSPTKEAFGEQPLQLTTKPDLLAWDPARNTHPPSHHPHPHPHHHHHHHHHHHHAVGLNLSHVRKRCLSETHGEREPCKKRLTARSISTPTCLGGSPAAERPADLPPAAALPQPEVILLDSDLDEPIDLRCVKTRSEAGEPPSSLQVKPETPASAAVAVAAAAAPTTTAEKPPAEAQDEPAESLSEFKPFFGNIIITDVTANCLTVTFKEYVTV [CBX4] | -0.386 | 0.583 |
